In the supplement of paper PMC9876800:

Test system: peptide library, one residue held at a place counted from the S/T acceptor
Assay: relative phosphorylation of the sub-library (ratio to the mean residue at this position); higher = residue favoured
Conditions: human
Method in brief: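 Relative sub-library phosphorylation is a ratio to the mean residue at the same position. Purified recombinant kinases were incubated under kinase-specific conditions with biotinylated degenerate peptide sub-libraries, each fixing one residue at one position around a central Ser/Thr, using 50 μM peptide and 50 μM ATP spiked with γ-32P-ATP for 90 min. Spots captured on streptavidin membranes were phosphorimaged and quantified by densitometry.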

Sequence of MAPK10, construct: aa1-426 (P53779 1-426, looked up): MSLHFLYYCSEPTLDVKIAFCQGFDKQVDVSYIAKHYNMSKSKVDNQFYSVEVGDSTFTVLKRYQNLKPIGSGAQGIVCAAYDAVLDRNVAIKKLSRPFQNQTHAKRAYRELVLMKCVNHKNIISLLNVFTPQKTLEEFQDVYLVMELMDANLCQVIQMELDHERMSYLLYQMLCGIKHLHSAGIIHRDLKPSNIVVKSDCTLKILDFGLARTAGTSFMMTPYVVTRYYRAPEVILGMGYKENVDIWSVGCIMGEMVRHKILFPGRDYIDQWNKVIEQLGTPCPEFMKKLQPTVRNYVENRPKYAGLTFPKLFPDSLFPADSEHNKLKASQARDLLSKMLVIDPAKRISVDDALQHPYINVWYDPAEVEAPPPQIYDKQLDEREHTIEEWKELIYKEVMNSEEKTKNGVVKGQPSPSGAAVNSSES
Sequence of HIPK1, construct: aa158-555 (Q86Z02 158-555, looked up): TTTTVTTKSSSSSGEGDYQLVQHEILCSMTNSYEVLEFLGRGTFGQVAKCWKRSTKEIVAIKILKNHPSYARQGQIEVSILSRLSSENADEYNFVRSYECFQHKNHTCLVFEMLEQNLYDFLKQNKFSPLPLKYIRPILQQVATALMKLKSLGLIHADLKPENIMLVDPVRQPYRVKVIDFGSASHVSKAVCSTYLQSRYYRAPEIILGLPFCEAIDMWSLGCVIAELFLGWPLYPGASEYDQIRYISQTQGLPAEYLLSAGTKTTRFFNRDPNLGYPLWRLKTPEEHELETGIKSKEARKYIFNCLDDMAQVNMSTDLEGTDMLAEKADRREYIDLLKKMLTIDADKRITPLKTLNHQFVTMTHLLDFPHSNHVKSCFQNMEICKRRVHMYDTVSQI
Sequence of ACVR2A, construct: aa162-end (P27037 162-513, looked up): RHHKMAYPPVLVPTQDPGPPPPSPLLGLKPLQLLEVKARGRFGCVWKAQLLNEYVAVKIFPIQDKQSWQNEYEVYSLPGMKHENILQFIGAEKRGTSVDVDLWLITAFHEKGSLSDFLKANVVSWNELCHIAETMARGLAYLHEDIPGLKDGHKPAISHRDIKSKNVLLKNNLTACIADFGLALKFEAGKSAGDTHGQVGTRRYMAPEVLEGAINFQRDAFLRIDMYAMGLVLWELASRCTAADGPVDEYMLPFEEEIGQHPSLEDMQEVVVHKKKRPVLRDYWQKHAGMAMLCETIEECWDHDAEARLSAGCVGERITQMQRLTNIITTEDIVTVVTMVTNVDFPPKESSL

ACVR2A, construct: aa162-end (from UniProt P27037)
relative phosphorylation
Conditions | at +1 | at +2 | at +3 | at +4 | at -1 | at -2 | at -3 | at -4 | at -5
A fixed | 0.647 | 1.12 | 0.899 | 0.847 | 0.822 | 0.53 | 0.912 | 0.943 | 0.992
D fixed | 1.68 | 1.24 | 1.06 | 1.09 | 1.23 | 4.3 | 1.79 | 1.77 | 1.51
E fixed | 3.21 | 1.03 | 1.48 | 1.09 | 1.29 | 5.23 | 2.05 | 1.48 | 1.34
F fixed | 0.932 | 0.983 | 1.09 | 0.89 | 1.17 | 0.504 | 0.877 | 1.05 | 1.02
G fixed | 0.575 | 1.36 | 1.01 | 0.924 | 0.57 | 0.5 | 1.11 | 0.933 | 0.818
H fixed | 0.7 | 1.12 | 1 | 0.974 | 1.07 | 0.487 | 0.9 | 0.937 | 0.969
I fixed | 1.18 | 0.915 | 0.942 | 0.957 | 0.804 | 0.454 | 0.855 | 0.895 | 1.06
K fixed | 0.327 | 0.805 | 0.785 | 0.896 | 0.532 | 0.354 | 0.603 | 0.69 | 0.868
L fixed | 0.873 | 0.674 | 1.04 | 0.87 | 1.27 | 0.431 | 0.814 | 0.884 | 1.01
M fixed | 0.996 | 0.879 | 1 | 1.13 | 1.44 | 0.399 | 0.875 | 0.98 | 0.886
N fixed | 0.638 | 0.863 | 0.891 | 0.946 | 0.816 | 0.676 | 0.854 | 0.852 | 0.911
P fixed | 0.34 | 0.989 | 1.14 | 1.29 | 0.676 | 0.321 | 0.854 | 0.791 | 0.706
Q fixed | 1.23 | 1 | 0.848 | 1.05 | 0.9 | 0.769 | 0.863 | 0.82 | 0.732
R fixed | 0.416 | 0.935 | 0.658 | 0.835 | 0.577 | 0.504 | 0.783 | 0.777 | 0.808
V fixed | 1.32 | 0.999 | 0.963 | 0.877 | 1.1 | 0.502 | 0.928 | 0.924 | 1.02
W fixed | 0.961 | 0.983 | 1.08 | 1.36 | 1.39 | 0.54 | 1 | 1.28 | 1.37
Y fixed | 0.971 | 1.11 | 1.11 | 0.985 | 1.33 | 0.498 | 0.935 | 0.996 | 0.982
pThr fixed | 4.65 | 1.1 | 0.882 | 1.2 | 1.37 | 1.01 | 2.05 | 1.37 | 1.33
pTyr fixed | 2.81 | 0.877 | 1.39 | 1 | 1.81 | 0.721 | 1.66 | 1.16 | 1.29

HIPK1, construct: aa158-555 (from UniProt Q86Z02)
relative phosphorylation
Conditions | at +1 | at +2 | at +3 | at +4 | at -1 | at -2 | at -3 | at -4 | at -5
A fixed | 0.711 | 1.04 | 0.979 | 0.83 | 1.21 | 2.16 | 0.93 | 1 | 0.905
D fixed | 0.165 | 0.679 | 0.59 | 0.795 | 0.471 | 0.278 | 0.49 | 0.719 | 0.716
E fixed | 0.193 | 0.512 | 0.51 | 0.687 | 0.485 | 0.283 | 0.464 | 0.762 | 0.634
F fixed | 0.264 | 1.15 | 0.885 | 1.04 | 0.567 | 0.398 | 0.342 | 0.668 | 0.793
G fixed | 0.896 | 1.37 | 1.19 | 1.14 | 1.26 | 0.872 | 1.27 | 1.13 | 0.991
H fixed | 0.354 | 1.23 | 1.17 | 1.07 | 0.881 | 0.454 | 0.698 | 0.884 | 1.06
I fixed | 0.421 | 0.708 | 0.92 | 0.978 | 0.536 | 0.999 | 0.42 | 0.781 | 0.883
K fixed | 0.503 | 1.42 | 0.886 | 1.12 | 1.75 | 0.898 | 1.13 | 1.3 | 1.26
L fixed | 0.329 | 0.928 | 1.2 | 1 | 0.682 | 0.862 | 0.525 | 0.876 | 0.84
M fixed | 0.272 | 0.815 | 0.972 | 1.04 | 0.916 | 0.607 | 0.484 | 0.793 | 0.742
N fixed | 0.318 | 1.04 | 0.826 | 1.01 | 0.761 | 0.735 | 0.677 | 0.704 | 0.928
P fixed | 8.97 | 1.1 | 2.4 | 1.14 | 1.91 | 2.58 | 1.07 | 1.22 | 1.21
Q fixed | 0.399 | 0.888 | 0.885 | 0.981 | 0.967 | 0.605 | 0.71 | 0.856 | 0.89
R fixed | 1.85 | 1.55 | 1.06 | 1.13 | 2.49 | 3.33 | 6.49 | 3.08 | 2.25
V fixed | 0.793 | 0.755 | 0.863 | 0.954 | 0.645 | 1.17 | 0.47 | 0.706 | 0.794
W fixed | 0.284 | 0.966 | 0.886 | 1.16 | 0.673 | 0.389 | 0.426 | 0.784 | 0.825
Y fixed | 0.276 | 0.848 | 0.772 | 0.917 | 0.801 | 0.381 | 0.397 | 0.723 | 1.27
pThr fixed | 0.387 | 0.46 | 0.541 | 0.711 | 0.485 | 1.05 | 0.712 | 0.94 | 1.05
pTyr fixed | 0.453 | 0.444 | 0.772 | 0.757 | 0.599 | 0.431 | 0.644 | 0.648 | 1.04

MAPK10, construct: aa1-426 (from UniProt P53779)
relative phosphorylation
Conditions | at +1 | at +2 | at +3 | at +4 | at -1 | at -2 | at -3 | at -4 | at -5
A fixed | 0.471 | 0.918 | 1.3 | 1.17 | 1.08 | 2.16 | 1.22 | 1.22 | 1.17
D fixed | 0.256 | 1 | 1.44 | 1.34 | 0.89 | 0.958 | 1.36 | 1.39 | 1.42
E fixed | 0.234 | 0.725 | 1.52 | 1.25 | 0.855 | 0.548 | 1.15 | 1.28 | 1.18
F fixed | 0.456 | 0.765 | 0.929 | 0.851 | 0.752 | 0.582 | 1 | 0.854 | 0.875
G fixed | 0.671 | 1.12 | 1.38 | 1.1 | 1.16 | 0.785 | 1.13 | 1.06 | 1.15
H fixed | 0.281 | 1.05 | 1.19 | 1.12 | 1.13 | 0.552 | 1.08 | 1.03 | 0.964
I fixed | 0.351 | 1.26 | 0.596 | 0.783 | 0.662 | 1.25 | 0.735 | 0.705 | 0.738
K fixed | 0.268 | 0.779 | 0.611 | 0.82 | 0.982 | 0.548 | 0.653 | 0.783 | 0.754
L fixed | 0.366 | 1.27 | 0.77 | 0.913 | 1.2 | 1.96 | 0.853 | 0.753 | 0.644
M fixed | 0.369 | 1.76 | 0.922 | 0.888 | 1.27 | 1.07 | 1.06 | 1.01 | 0.722
N fixed | 0.269 | 1.03 | 1.07 | 1.07 | 0.849 | 0.554 | 1.03 | 0.84 | 0.928
P fixed | 11.5 | 0.517 | 0.564 | 1.5 | 1.47 | 2.13 | 1.2 | 1.23 | 1.33
Q fixed | 0.259 | 1.03 | 1 | 1.05 | 1.37 | 0.747 | 0.964 | 1.01 | 1.07
R fixed | 0.269 | 0.848 | 0.945 | 0.893 | 1.01 | 0.612 | 0.883 | 0.923 | 1.07
V fixed | 0.367 | 1.48 | 0.723 | 0.82 | 0.781 | 1.43 | 0.717 | 0.843 | 0.913
W fixed | 0.29 | 0.723 | 1.03 | 0.701 | 0.722 | 0.587 | 1.03 | 1.1 | 0.967
Y fixed | 0.292 | 0.734 | 0.999 | 0.732 | 0.815 | 0.518 | 0.929 | 0.962 | 1.1
pThr fixed | 0.434 | 1.94 | 1.02 | 1.4 | 0.52 | 1.08 | 1.06 | 1.17 | 1.29
pTyr fixed | 0.569 | 1.23 | 1.59 | 1.02 | 0.893 | 0.598 | 1.03 | 1.64 | 1.41

PRKCA, construct: Full length (from UniProt P17252)
relative phosphorylation
Conditions | at +1 | at +2 | at +3 | at +4 | at -1 | at -2 | at -3 | at -4 | at -5
A fixed | 0.485 | 0.407 | 0.553 | 0.819 | 0.905 | 0.911 | 0.726 | 1.03 | 1.09
D fixed | 0.185 | 0.216 | 0.528 | 0.597 | 0.541 | 0.467 | 0.389 | 0.578 | 0.646
E fixed | 0.21 | 0.16 | 0.526 | 0.514 | 0.472 | 0.407 | 0.439 | 0.724 | 0.643
F fixed | 1.74 | 0.477 | 1.01 | 0.553 | 0.637 | 0.727 | 0.963 | 0.892 | 1.14
G fixed | 0.648 | 0.42 | 1.16 | 1.46 | 2.07 | 1.34 | 1.23 | 1.47 | 1.53
H fixed | 0.597 | 1.23 | 1.12 | 1.09 | 0.948 | 0.985 | 1.05 | 1.04 | 0.997
I fixed | 1.64 | 0.499 | 0.602 | 0.58 | 0.389 | 0.413 | 0.501 | 0.59 | 0.646
K fixed | 1.69 | 3.79 | 1.99 | 2.3 | 1.88 | 1.79 | 1.6 | 1.39 | 1.43
L fixed | 1.42 | 0.395 | 0.843 | 0.499 | 0.638 | 0.469 | 0.493 | 0.549 | 0.688
M fixed | 1.33 | 0.571 | 0.741 | 0.564 | 0.826 | 0.678 | 0.796 | 0.649 | 0.626
N fixed | 0.561 | 0.86 | 0.918 | 1.04 | 1.39 | 1.08 | 1.2 | 0.915 | 0.877
P fixed | 0.364 | 0.401 | 0.697 | 1.55 | 1.26 | 1.13 | 1.43 | 1.45 | 1.22
Q fixed | 1.41 | 0.684 | 1.03 | 0.926 | 1.04 | 1.15 | 0.886 | 1.12 | 0.716
R fixed | 1.87 | 4.65 | 2.46 | 2.26 | 2.01 | 3.23 | 3.44 | 1.59 | 1.84
V fixed | 1.26 | 0.464 | 0.662 | 0.703 | 0.661 | 0.522 | 0.447 | 0.92 | 0.638
W fixed | 0.729 | 0.586 | 0.972 | 0.797 | 0.475 | 1 | 0.589 | 1.28 | 1.38
Y fixed | 0.867 | 1.19 | 1.19 | 0.747 | 0.862 | 0.686 | 0.811 | 0.805 | 0.884
pThr fixed | 0.729 | 0.345 | 0.663 | 0.482 | 0.348 | 0.603 | 0.636 | 0.807 | 0.655
pTyr fixed | 0.38 | 0.31 | 0.58 | 0.427 | 0.983 | 0.679 | 0.98 | 0.802 | 1.11
